From article PMC8741645 (Structure (London, England : 1993), 2021)

Target: the molecule itself
Test: cryo-EM structure

B1: Saccharomyces cerevisiae vacuolar transient receptor potential yeast 1 (TRPY1) channel, full length, wild type (natural protein, UniProt Q12324 1-675, looked up)
chain: MVSANGDLHLPISNEQCMPENNGSLGFEAPTPRQILRVTLNLKYLIDKVVPIVYDPNDIVCDHSEILSPKVVKLAYEACGGNPKDKANKRKYQSVIIFSLLKVCEWYSILATMEVHNAKLYETRNLASQQLCKLLIEREETRDLQFLFMQLLLRRYVINENDEDQEPLNALELATDMHCTTVIGSSGFQRCLKWIWRGWIVQNGLDPTTFIKDDSLAEVSLISHFNPVRLKAPVYQNYLQMIFSFLFLGLYTLVVNGKDSERVQSFDLLESIFYVFNTGFILDELTKLYYIGYAHLSFWNLFNDTTYLIITFAMGFRAMSVTPLNAKYSSEDWDKISYRVLSCAAPFVWSRLLLYLESQRFIGIMLVILKHMMKESIVFFFLLFLIMIGFTQGFLGLDSADGKRDITGPILGNLTITVLGLGSFDVFEEFAPPYAAILYYGYYFIVSVILLNILIALYSTAYQKVIDNADDEYMALMSQKTLRYIRAPDEDVYVSPLNLIEVFMTPIFRILPPKRAKDLSYTVMTIVYSPFLLLISVKETREARRIKYNRMKRLNDDANEYDTPWDLTDGYLDDDDGLFSDNRNSGMRATQLKNSRSLKLQRTAEQEDVHFKVPKKWYKNVKKCSPSFEQYDNDDTEDDAGEDKDEVKELTKKVENLTAVITDLLEKLDIKDKKE
stoichiometry N: 4
